This note sets out measurements from publication doi:10.1101/2025.08.01.668090, “Target Preference Maps: A machine learning model generalizing transferable drug-receptor interactions and guiding drug discovery” (bioRxiv, 2025).

Where no end group is shown, it is not given here.

The assay concerns the target T1, N-terminal domain of T. brucei PEX14 (residues 19-84) (T. brucei, UniProt Q38CL4 19-84).
T1 construct: also called N-His-PEX14; source: E. coli BL21(DE3), purified (Ni-NTA, Superdex 75); not shown: His tag, N-terminal, kept
T1 sequence (looked up): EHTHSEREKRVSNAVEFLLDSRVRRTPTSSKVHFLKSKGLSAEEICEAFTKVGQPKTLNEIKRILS
The assay can be described thus: AlphaScreen or HTRF; 3 nM N-His-PEX14 with 10 nM biotinylated PEX5-derived peptide in PBS with 5 mg/mL BSA and 0.01 % (v/v) Tween-20; streptavidin donor beads and nickel chelate acceptor beads, 5 ug/mL each; competition with small-molecule inhibitors (600-0 uM), 5% DMSO. The conditions noted are these: both partners purified.

B1: biotinylated PEX5-derived peptide (ALSENWAQEFLA) (peptide)
peptide: ALSENWAQEFLA
modifications: also: biotinylated (position not given here)
notes: PEX5-derived peptide with a WxxxF motif; Held on streptavidin donor beads by its biotin; The same peptide was used with PEX14 of all three species
Take B1: the binding result is “binds”.
